From publication PMC4932183, “Structure and activation of pro-activin A” (Nature Communications, 2016)

B1: mature activin A (disulfide-linked dimer of the mature domain of inhibin βA) (ligand, human, UniProt P08476 311-426, looked up)
chain: GLECDGKVNICCKKQFFVSFKDIGWNDWIIAPSGYHANYCEGECPSHIAGTSGSSLSFHSTVINHYRMRGHSPFANLKSCCVPTKLRPMSMLYYDDGQNIIKKDIQNMIVEECGCS
notes: human inhibin βA chain (Uniprot P08476), mature domain, up to residue 426; residues marked m (Asp27m) count on the mature domain. numbers count on: the mature protein; Residues of the HRV 3C site could be left at the N-terminus of the complex-derived form; also called mature dimer; control activin A
B2: follistatin-288 (natural protein, UniProt P19883-2 30-317, looked up)
chain: GNCWLRQAKNGRCQVLYKTELSKEECCSTGRLSTSWTEEDVNDNTLFKWMIFNGGAPNCIPCKETCENVDCGPGKKCRMNKKNKPRCVCAPDCSNITWKGPVCGLDGKTYRNECALLKARCKEQPELEVQYQGRCKKTCRDVFCPGSSTCVVDQTNNAYCVTCNRICPEPASSEQYLCGNDGVTYSSACHLRKATCLLGRSIGLAYEGKCIKAKSCEDIQCTGGKKCLWDFKVGRGRCSLCDELCPDSKSDEPVCASDNATYASECAMKEAACSSGVLLEVKHSGSCN

How the values were obtained:
[1] = biological target: T1, Avi-tagged follistatin-288, biotinylated (UniProt P19883-2 30-317, biotin (on the Avi tag, by BirA)); experiment: BLI; biotinylated Avi-tagged FST-288 immobilised on streptavidin biosensors; analytes in kinetic buffer (PBS, 0.1% bovine serum albumin, 0.02% Tween-20); 600 s association, 600 s dissociation; 30 °C; settings: both partners purified
T1 construct: source: biotinylated with BirA enzyme, purified by reverse phase chromatography

[2] = biological target: T2, cleaved pro-activin A complex (pro-mature complex) (human, UniProt P08476 311-426); experiment: cell-based or functional assay
T2 sequence (P08476 whole entry, looked up): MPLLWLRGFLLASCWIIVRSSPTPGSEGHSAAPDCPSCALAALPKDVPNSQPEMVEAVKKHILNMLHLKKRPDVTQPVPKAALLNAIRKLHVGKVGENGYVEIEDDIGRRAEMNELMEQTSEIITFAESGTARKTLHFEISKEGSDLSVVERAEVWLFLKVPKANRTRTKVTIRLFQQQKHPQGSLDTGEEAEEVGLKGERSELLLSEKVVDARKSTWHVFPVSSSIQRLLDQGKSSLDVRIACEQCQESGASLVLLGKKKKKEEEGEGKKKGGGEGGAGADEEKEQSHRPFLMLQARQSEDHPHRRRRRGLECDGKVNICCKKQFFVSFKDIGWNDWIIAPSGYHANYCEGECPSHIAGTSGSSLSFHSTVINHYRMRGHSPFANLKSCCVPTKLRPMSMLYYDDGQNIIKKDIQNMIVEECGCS

[3] = biological target: B1; experiment: cell-based or functional assay

Row | Binder | Kd [1] [pM] | IC50 of FST-288 for inhibition of signalling by 60 pM pro-activin A complex; activin-inducible luciferase reporter in HEK293T cells [2] [pM] | IC50 of FST-288 for inhibition of signalling by 60 pM mature activin A; activin-inducible luciferase reporter in HEK293T cells [3] [pM]
1 | B1 | 209 | – | –
2 | B2 | – | 90 | 81
